Source: the supplement of paper PMC10567573

B1: RTP4 (parent)
chain: AFGWFRCSSCQRSWASAQVQILCH
B2: OR3A1 (parent)
chain: PMYFFLGNLSVLDVGCISVTVPSM

Variants of: B1
Test: protein stability index of a GFP-peptide fusion (GPS, HEK-293T) (PSI 1-6); higher = more stable
Conditions: c terminus: a fixed tail appended
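Also: lentivirally expressed fusions sorted by FACS into six bins by GFP to DsRed ratio, PSI derived from sequencing read proportions per bin multiplied by bin number.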

Protein stability index: each site, then its substitutions
A1: G 3.21 | V 2.11 | H 1.78 | W 2.44 | R 3.15 | M 2.42 | L 2.49 | C 2.22 | S 4.21 | T 2.12 | K 3.61 | Y 2.87 | E 1.79
W4: G 3.48 | P 3.99 | E 1.91 | Y 2.37 | H 2.49 | L 1.67 | T 1.47 | C 2.77
H24: N 3.06 | A 1.84 | Y 3.39 | F 3.12 | W 1.61 | D 1.97 | P 3.58 | V 4.55 | R 3.52 | K 1.83 | I 3.64
F5: Q 2.99 | G 2.57 | K 3.49 | C 1.77 | Y 4 | I 2.35
L22: G 1.41 | W 2.17 | R 1.61 | H 2.13 | T 1.65 | C 1.4 | A 2.09 | N 2.66 | D 1.79 | M 1.32 | P 3.05
A17: V 2.19 | N 1.65 | Y 2.43 | C 2.38 | M 1.86 | W 2.94 | H 2.31 | P 2.21 | K 3.13 | I 3.06 | E 2.93 | D 3.07
V19: R 2.36 | D 1.52 | S 2.36 | N 3 | P 1.35 | I 3.39 | A 1.57 | F 3.22 | E 2.23 | Q 1.91 | C 1.56 | M 3.54 | G 2.58 | K 1.67 | H 1.59 | T 2.79 | Y 3.2
G3: D 1.45 | P 3.37 | A 2.75 | N 2.75 | H 1.14
Q11: H 2.43 | G 2.23 | V 4.38 | W 1.81 | E 1.88 | Y 4.15 | K 3.01 | P 2.27 | R 2.89 | N 2.49 | D 2.83 | T 3.55 | I 3.81
C7: K 3.9 | E 2.89 | H 2.97 | V 3.3 | L 4.23 | D 3.61 | S 3.67 | Y 2.67 | I 2.4
C23: D 1.92 | N 2.21 | K 2.35 | Q 3.85 | S 1.8 | F 2.59 | T 1.93 | I 4.29 | M 3.79 | P 2.83 | R 1.49 | H 1.84 | L 2.78 | E 2.8
R12: S 2 | L 1.65 | W 2.71 | M 2.86 | I 2.33 | Y 2.83 | K 1.9 | N 1.91 | Q 3.2 | C 3.76 | P 3.2 | T 3.84 | D 2.1
S8: P 2.27 | D 3.96 | H 2.39 | E 1.83 | V 3.2
R6: H 2.77 | Q 2.12 | Y 2.65 | A 2.65 | C 2.07 | L 3.45 | I 3.19 | N 1.77 | F 1.93
A15: F 2 | C 2.98 | W 2.79 | V 1.07 | I 1.53 | Y 2.87 | E 1.6 | K 2.12 | S 2.04 | H 1.83 | D 1.24 | N 4.46
W14: H 1.95 | K 2.54 | L 1.57 | P 3.31 | I 2.21 | F 3.1 | C 3.08 | N 2.96 | Y 2.11 | R 1.48 | S 2.45 | A 1.8 | M 1.1 | V 1.36 | T 3.22
I21: Q 1.62 | N 1.68 | Y 3.2 | S 3.43 | R 1.72 | A 1.68 | H 2.27 | L 2.34 | K 1.03 | T 2.9 | F 2.39 | W 1.37 | C 3.07 | G 1.49
S9: C 2.09 | N 2.39 | I 2.15 | K 1.72 | Y 3.01 | H 3.52 | Q 2.35 | L 2.59 | P 2.5 | T 4.83 | F 2.75 | M 3.56 | V 1.64 | G 1.9
F2: P 2.67 | T 2.73 | D 2.56
Q20: T 1.24 | I 2.42 | K 2.83 | P 3.22 | W 1.69 | H 2.97 | N 2.4 | D 1.66 | A 1.57 | V 2.08 | S 2.84 | C 2.17 | Y 3.08 | L 4.4
S13: W 3.02 | L 1.69 | Q 2.43 | D 2.27 | R 2.27 | F 1.54 | V 3.12 | M 2.09 | N 3.74 | Y 3.16 | H 2.36 | P 2.41 | I 1.36
Q18: I 2.59 | W 2.88 | M 3.17 | N 1.71 | A 2.37 | D 2.22 | H 2.68 | V 4.68 | T 1.57 | S 2.14 | P 2.52 | C 3.51
S16: A 2.73 | Y 1.78 | I 2.64 | F 2.12 | T 1.95 | K 2.9 | N 2.77 | E 3.11 | D 2.46 | W 1.86 | R 2.79 | H 3.4
C10: F 3.06 | G 3.33 | N 3.16 | L 2.7 | R 2.77

Variants of: B2
Test: as above
Conditions: c terminus: a fixed tail appended

Protein stability index, by site and new letter:
S23: T 2.84 | I 2.86
V11: F 3.67 | Q 2.65 | R 3.13
F4: S 1.91 | T 1.26 | K 1.52
L6: D 1.08
G7: K 2.05 | H 1.39 | T 2.84
T20: P 1.39 | Q 3.11 | F 2.71
S10: E 3.25 | F 3.53 | Q 1.03
L12: T 4.2 | I 3.78 | H 2.78 | E 1.85
G15: Y 1.93 | S 2.12
P1: Q 3.32 | Y 2.1 | E 2.01 | S 2.89 | H 2.79 | I 2.88
C16: T 3.51 | R 3.48 | H 2.83 | D 3.14 | N 2.12 | Q 2.99 | F 2.85 | S 3.15
D13: Y 2.55 | V 1.73 | L 3.26 | K 2.74 | S 2.33 | P 3.47
V21: I 2.55 | F 1.96 | P 2.96 | D 4.14 | K 3.59 | S 2.8
P22: I 3.76
F5: N 2.82 | H 2.64
M24: L 1.24 | F 3.27 | W 3.96
Y3: C 4.31 | N 2.37
M2: K 3.24 | H 2.67
N8: P 2.27 | G 2.71
L9: T 2.59 | D 2
V14: G 3.25
S18: I 3.52
I17: F 3.32 | P 3.39
V19: E 1.14 | F 3.66 | P 2.55 | Q 3.27 | D 3.51 | Y 2.93
